Literature values as cited in article PMC6003685.

Biological target: PspF 1-265 (Escherichia coli) (UniProt P37344)

In the case of PspA 1-144 (from UniProt P0AFM6), the Kd is given as 1 µM.
